Key:
C3aR [1] = biological target: T1, C3aR (Homo sapiens, UniProt Q16581); experiment: Radiolabelled ligand competition receptor binding, C3aR-transfected RBL cells
T1 construct: expressed in transfected cells
T1 sequence (Q16581 1-482): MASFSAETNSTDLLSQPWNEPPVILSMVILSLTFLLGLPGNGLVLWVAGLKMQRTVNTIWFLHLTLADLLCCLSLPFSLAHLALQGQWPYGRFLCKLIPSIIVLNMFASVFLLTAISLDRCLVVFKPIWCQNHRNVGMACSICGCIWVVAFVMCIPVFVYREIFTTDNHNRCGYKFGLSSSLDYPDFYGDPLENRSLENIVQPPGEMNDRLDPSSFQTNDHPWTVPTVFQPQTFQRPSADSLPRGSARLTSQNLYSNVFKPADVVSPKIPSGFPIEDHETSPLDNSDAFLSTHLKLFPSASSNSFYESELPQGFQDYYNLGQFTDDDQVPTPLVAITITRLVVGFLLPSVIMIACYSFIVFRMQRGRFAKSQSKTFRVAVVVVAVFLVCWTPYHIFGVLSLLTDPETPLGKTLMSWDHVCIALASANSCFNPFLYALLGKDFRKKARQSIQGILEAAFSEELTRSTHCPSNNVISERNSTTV
Excerpt: (§1) C5L2, C3aR and CD88-transfected RBL cells were produced as described (17). G16 was cloned from human monocytes mRNA and authenticated by sequencing. Human G16 and either C5L2 or CD88 were ligated into the bicistronic expression vector pIRES (Qiagen). Stable transfection of RBL-2H3 cells with pIRES constructs was achieved by electroporation (18). Cells underwent three rounds of fluorescence-activated cell sorting using anti-CD88 antibody (clone S5/1; Serotec) or anti-hemagglutinin peptide antibody (Roćhe Molecular Biochemicals, clone 12CA5), selecting the top 5% of receptor-positive cells in each round.
(§2) Competition binding assays were performed using 50 pM ^125I-C5a or ^125I-C3a (NEN) on adherent C5aR-transfected or C5L2-transfected RBL cells in 96-well microtiter plates (55 000/well) at 4° C. as described previously (22). Competition curves were generated by pre-incubating adherent cells with increasing concentrations of unlabelled complement fragments. The IC50, standard error values and linear regression analyses were obtained by using GraphPad Prism 2.0.

C5L2 [2] = biological target: T2, C5L2 (Homo sapiens, UniProt Q9P296); experiment: Fluorescent ligand binding/uptake (FACS), HEK 293 cells transiently transfected with C5L2
T2 construct: expressed in transfected cells
T2 sequence (Q9P296 whole entry): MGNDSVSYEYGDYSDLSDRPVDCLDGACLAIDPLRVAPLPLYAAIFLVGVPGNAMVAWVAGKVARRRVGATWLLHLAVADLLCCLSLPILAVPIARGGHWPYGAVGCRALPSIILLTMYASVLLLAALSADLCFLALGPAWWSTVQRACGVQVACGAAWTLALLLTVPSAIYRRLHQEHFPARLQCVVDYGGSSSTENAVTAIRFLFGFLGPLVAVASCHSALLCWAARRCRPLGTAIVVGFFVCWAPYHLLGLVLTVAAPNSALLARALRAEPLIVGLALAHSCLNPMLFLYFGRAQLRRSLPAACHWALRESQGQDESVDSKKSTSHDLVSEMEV
Description: (§3) HEK 293 cells were transfected with C3aR (A) or C5L2 (B) and three days later cells were incubated for 30 minutes with the indicated concentrations of FLUOS-labelled C3a or ASP, respectively. Binding/uptake was assessed by FACS, and the percentage of cells above a fluorescence intensity of 8 was determined. The fluorescence histograms at the highest and lowest ligand concentrations are shown in the insets;
(§4) HEK 293 cells were seeded into 6-well plates at 1×10^6 cells/well the day before transfection. C5L2 in vector pEE6hCMV.neo (Celltech) or C3aR in vector pcDNA1/AMP (Invitrogen) at 2 μg DNA/well were transfected with Lipofectamine2000 (5 μl/well) (Invitrogen) according to the manufacturer's protocol. Cells were assayed for binding/uptake three days post-transfection.
(§5) ASP or C3a was labelled with FLUOS (Roche Biochemicals) at a molar ratio of 1:10 (ligand:FLUOS) for two hours according to the manufacturer's recommendations. Labelled ligand was separated from free FLUOS on a Sephadex G25M column and stored in aliquots at −80° C.
(§6) Cells were incubated with the indicated concentrations of FLUOS-labelled ASP or C3a for 30 minutes at 37° C. in binding buffer (23) and washed three times with cold binding buffer. Cells were then detached with 0.25% trypsin/0.02% EDTA in PBS, fixed with 1% paraformaldehyde, washed with PBS, and assayed by fluorescence-activated cell scanning.

C3aR [3] = biological target: T1, C3aR; experiment: Fluorescent ligand binding/uptake (FACS), HEK 293 cells transiently transfected with C3aR; settings: HEK 293 transiently transfected with C3aR; mean±SD, n=3
Description: as §3, §4, §5, §6

CD88 [4] = biological target: T3, CD88 (Homo sapiens, UniProt P21730); experiment: Degranulation of CD88-transfected RBL cells; type: cell-based
T3 construct: expressed in transfected cells
T3 sequence (P21730 1-350): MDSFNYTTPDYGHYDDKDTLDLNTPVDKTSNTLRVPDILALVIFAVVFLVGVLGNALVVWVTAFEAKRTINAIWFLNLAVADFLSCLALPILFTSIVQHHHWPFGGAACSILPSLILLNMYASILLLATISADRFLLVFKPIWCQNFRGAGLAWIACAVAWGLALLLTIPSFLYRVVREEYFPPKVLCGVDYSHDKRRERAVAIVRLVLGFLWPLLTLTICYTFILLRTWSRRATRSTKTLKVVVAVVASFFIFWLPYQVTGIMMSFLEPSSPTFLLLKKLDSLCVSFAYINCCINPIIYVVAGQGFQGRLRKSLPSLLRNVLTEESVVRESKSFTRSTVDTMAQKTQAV

CD88+Gα16 = biological target: T4, CD88+Gα16 (Homo sapiens, UniProt P21730); experiment: Degranulation of CD88+Gα16 co-transfected RBL cells; type: cell-based; settings: 10 ng/ml PT
T4 construct: expressed in transfected cells
T4 sequence (P21730 1-350): T3 sequence (P21730 1-350)

C5L2 [5] = biological target: T2, C5L2; experiment: Degranulation (β-hexosaminidase) and enhancement of IgE-receptor-mediated degranulation, C5L2-transfected RBL cells; type: cell-based
C5L2 [6] = biological target: T2, C5L2; experiment: Triglyceride synthesis (3H oleate incorporation) in HEK293 cells stably transfected with C5L2; type: cell-based
Description: FIG. 15: Functional Response of HEK293 Cells Stably Transfected with C5L2 to ASP and Insulin: Cells were tested for response to ASP and insulin stimulation of triglyceride synthesis with 100 μM ^3H oleate for 4 hours. Results are calculated as nmol ^3H oleate incorporated into triglyceride/mg cell protein where 0 ASP is set as 100%. […] As in many biologic assays, the concentration required for activity at 37° C. under dynamic conditions is greater than the binding affinity (which is assessed at 4° C. under static conditions). For example, insulin Kd is in the pM range, but nM concentrations are required for activity. ASP Kd is high nM range, but biologic activity is in low μM range.

C5L2 [7] = biological target: T2, C5L2; experiment: Competition binding with 125I-C3a, C5L2-transfected RBL cells; settings: for IC50 / pD2 ± SE: C5L2 (^125I-C3a) expressed in RBL cells, 50 pM radioligand
Description: (§7) FIG. 1 illustrates C3a des-Arg^77 and C4a des-Arg^77 bind to RBL cells expressing C5L2. RBL cells transfected with C5L2 were incubated with the stated concentrations of complement fragments for 10 min prior to the addition of 50 pM ^125I-C3a (A) or 50 pM ^125I-C5a (B). Results are the means of n (n shown in Table 1) separate experiments performed in duplicate±S.E.;
as §1, §2

CD88 [8] = biological target: T3, CD88; experiment: Radiolabelled ligand competition receptor binding, CD88-transfected RBL cells
Excerpt: as §1, §2

C5L2 [9] = biological target: T2, C5L2; experiment: Competition binding with 125I-C5a, C5L2-transfected RBL cells
Description: as §7, §1, §2

C3aR [10] = biological target: T1, C3aR; experiment: Degranulation of C3aR-transfected RBL cells; type: cell-based; settings: RBL cells transfected with C3aR; data not shown
Description: (§8) Cellular activation was measured as the release of -hexosaminidase from intracellular granules (20). In the enhancement of degranulation assay, cells were treated with 1 μg/ml IgE^DNP (21) overnight, then with chemoattractants or peptides for 10 min prior to stimulation with 100 ng/ml DNP-HSA (Sigma) for 15 minutes. EC50 and standard error values were obtained by iterative curve fitting using GraphPad Prism 2.0.

[11] = biological target: T5, human formyl peptide-like receptor-1 (Homo sapiens, UniProt P25090); experiment: Enhancement of degranulation, RBL cells transfected with an irrelevant receptor; type: cell-based; settings: RBL cells transfected with FPRL-1, FIG. 3B
T5 construct: expressed in transfected cells; host or cells: RBL cells
T5 sequence (P25090 1-351): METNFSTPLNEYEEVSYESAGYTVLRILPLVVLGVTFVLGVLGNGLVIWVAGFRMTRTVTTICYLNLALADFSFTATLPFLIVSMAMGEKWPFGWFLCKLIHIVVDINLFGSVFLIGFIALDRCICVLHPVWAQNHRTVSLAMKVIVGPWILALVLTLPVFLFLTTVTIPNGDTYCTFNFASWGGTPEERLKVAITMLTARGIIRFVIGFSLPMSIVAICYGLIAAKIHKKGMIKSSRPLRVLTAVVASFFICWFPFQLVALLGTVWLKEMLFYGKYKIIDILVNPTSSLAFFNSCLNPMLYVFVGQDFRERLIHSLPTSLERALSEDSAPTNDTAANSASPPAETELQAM
Description: FIG. 3 illustrates C3a des-Arg^77 enhances the degranulation response to cross-linkage of the high affinity IgE receptor in cells transfected with C5L2. RBL cells transfected with A), C5L2 or B), an irrelevant receptor (human formyl peptide-like receptor-1) were incubated overnight with […] IgE^DNP and then treated with the stated concentrations of C5a des-Arg^74, C4a des-Arg^77 or C3a des-Arg^77 or ASP for 15 minutes prior to the addition of the cross-linking agent, HSA-DNP at 100 ng/ml. Degranulation was assessed as the secretion of β-hexosaminidase. Results are shown as a percentage of the release stimulated by 100 ng/ml HSA-DNP in the absence of anaphylatoxin (control=1) and are means of 3-6 separate experiments performed in triplicate, ±S.E.
as §8

[12] = HEK-C5L2 stable transfectants, 100 μM ^3H oleate, 4 hours
[13] = C5L2 (^125I-C5a) expressed in RBL cells, 50 pM radioligand

With “^125I-ASP: ^125I-labelled ASP [reference compound]” the “binding to C3aR-transfected cells” value (C3aR [1]; ^125I-labelled ligand, data not shown) was “does not bind to C3aR-transfected cells”.

For “FLUOS-ASP: ASP labelled with FLUOS at a molar ratio of 1:10”, the Kd (C5L2 [2]; HEK 293 transiently transfected with C5L2, 30 minutes at 37° C., flow cytometry, read-out: half maximal fluorescence intensity (binding/uptake)) was about 0.003 µM, the “binding to mock-transfected cells” value (C5L2 [2]; mock-transfected HEK 293 cells, 10 nM) was “no binding” and the “binding (basal binding=100%)” value (C3aR [3]) was 103%±14%.

pertussis toxin [reference compound] was tested, and the “effect on degranulation response to C5a” value (CD88 [4]; CD88 alone, 0-10 ng/ml PT for 4 h prior to 50 nM C5a) was “inhibited the degranulation response”, the “effect on degranulation response to C5a” value (CD88+Gα16) was “a small inhibition of degranulation” and the “effect on enhancement of degranulation by ASP/C3a des-Arg^77” value (C5L2 [5]; C5L2 alone, 10 ng/ml PT for 4 h, FIG. 4C) was “can be inhibited by pre-treating cells with pertussis toxin”.

In the case of insulin, the “stimulation of triglyceride synthesis” value (C5L2 [6]; [12]) is reported as “neither HEK nor HEK-C5L2 are responsive to insulin” and the “stimulation of triglyceride synthesis” value (C5L2 [6]; non-transfected HEK cells) is reported as “neither HEK nor HEK-C5L2 are responsive to insulin”.

In the case of “ASP: Plasma ASP (C3a des-Arg^77), human C3a des-Arg^77 purified as acylation-stimulating protein”, the “Kd” value (C5L2 [7]; binding affinity assessed at 4° C. under static conditions) is reported as “high nM range”, the “EC50 compared with recombinant C3a des-Arg^77” value (C5L2 [5]; enhancement of IgE-mediated degranulation, FIG. 3A) is reported as “identical EC50” and the “concentration for biologic activity” value (C5L2 [6]; 37° C. under dynamic conditions) is reported as “low μM range”. For the same substance, the “stimulation of triglyceride synthesis” value (C5L2 [6]; [12]) was “increasing triglyceride synthesis in a concentration dependent manner” and the “stimulation of triglyceride synthesis” value (C5L2 [6]; non-transfected HEK cells) was “not responsive to ASP”.

C3a: 77 amino acid complement fragment was tested, and the IC50 (CD88 [8]; CD88 expressed in RBL cells, competition binding, 4° C., read-out: IC50 (concentration of unlabelled ligand resulting in 50% of maximal radioligand binding)) was 23 µM, the IC50 (C5L2 [7]) was 0.167 µM and the “pD2 ± SE” value (C5L2 [7]) was 6.78 ± 0.10. For the same substance, the IC50 (C5L2 [9]; [13]) was 23 µM.

In the case of C3a des-Arg^77, the “competition with ^125I-C5a binding to CD88” value (CD88 [8]) is reported as “cannot compete effectively”, the stimulation of degranulation (C3aR [10]) is reported as “neither C3a des-AXg^77 nor C4a des-Arg^77 can stimulate degranulation” and the IC50 (C5L2 [7]) is reported as 0.526 µM. For the same substance, the “pD2 ± SE” value (C5L2 [7]) was 6.24 ± 0.10, the “competition with ^125I-C3a for C5L2 binding” value (C5L2 [7]; FIG. 1A) was “can compete strongly” and the stimulation of degranulation (CD88 [4]; RBL cells transfected with CD88, data not shown) was “neither C3a des-AXg^77 nor C4a des-Arg^77 can stimulate degranulation”. The “affinity for C3aR” value (C3aR [1]; Table I) was “no detectable affinity”, the enhancement of degranulation [11] was “small enhancement of degranulation” and the IC50 (C5L2 [9]; [13]) was 18 µM. For the same substance, the “pD2 ± SE” value (C5L2 [9]; [13]) was 4.73 ± 0.16, the “competition with ^125I-C5a binding to C5L2” value (C5L2 [9]; FIG. 1B) was “cannot compete effectively” and the “direct stimulation of degranulation” value (C5L2 [5]; without IgE receptor cross-linking, data not shown) was “neither recombinant nor purified C3a des-Arg^77 (or any other ligand) is able to directly stimulate degranulation”.
